According to PMC6155255, “Synthetic Peptides Derived from Bovine Lactoferricin Exhibit Antimicrobial Activity against E. coli ATCC 11775, S. maltophilia ATCC 13636 and S. enteritidis ATCC 13076” (Molecules : A Journal of Synthetic Chemistry and Natural …, 2017):

Legend:
E. coli ATCC 11775 [1] = format: cell-based, Escherichia coli; details: E. coli ATCC 11775, value in brackets (µM), 24 h at 37 °C, performed twice
Procedure: (§1) The MIC and MBC were determined using a microdilution assay. In brief, bacterial strains were incubated for 18 to 24 h at 37 °C in an MH broth until an optical density of 0.15 to 0.30 (620 nm) was obtained. 90 µL of Mueller-Hinton broth (MHB) were mixed with 90 µL of peptide (440 µg/mL), and using a 96-well microtiter plate peptide, serial dilution (200, 100, 50, 25, 12.5, and 6.2 µg/mL) was performed. 10 µL of inoculum (2 × 10^6 CFU/mL) was added to each well. Final volume in each well was 100 µL. Then they were incubated for 24 h at 37 °C; and the absorbance at 620 nm was measured using an Asys Expert Plus ELISA reader. To determine the MBC, an aliquot was taken from each well and was spread onto a MHA plate. After 24 h at 37 °C, the CFU/mL was determined. Each of these tests was performed twice.

[2] = system: S. maltophilia ATCC 13636; format: cell-based, Stenotrophomonas maltophilia; details: S. maltophilia ATCC 13636, value in brackets (µM), 24 h at 37 °C, performed twice
Procedure: as §1

[3] = system: S. enteritidis ATCC 13076; format: cell-based, Salmonella enteritidis; details: S. enteritidis ATCC 13076, value in brackets (µM), 24 h at 37 °C, performed twice
Procedure: as §1

E. coli ATCC 11775 [4] = format: cell-based, Escherichia coli; details: 200 µg/well, 8 mm wells in Mueller-Hinton agar, 48 h at 37 °C
Procedure: (§2) These tests were carried out following the methodology reported in [36]. Briefly, an inoculum aliquot (200 µL; 2 × 10^6 CFU/mL) was placed on Mueller-Hinton (MH) Agar plates, mixed, and allowed to solidify. Wells were drilled using a punch of 8 mm, and then each hollow was filled with 100 µL of peptide (2000 µg/mL). Incubation for 48 h at 37 °C was then performed. As a non-growth control, ciprofloxacin 1.25 µg/mL was used for all tested strains. Sterile water was used as a growth control.

[5] = system: S. maltophilia ATCC 13636; format: cell-based, Stenotrophomonas maltophilia; details: 200 µg/well, 8 mm wells in Mueller-Hinton agar, 48 h at 37 °C
Procedure: as §2

[6] = system: S. enteritidis ATCC 13076; format: cell-based, Salmonella enteritidis; details: 200 µg/well, 8 mm wells in Mueller-Hinton agar, 48 h at 37 °C
Procedure: as §2

[7] = system: various strains of E. coli (0111, L361, ATCC 25922, wild strain, and IID-861); details: various strains of E. coli (0111, L361, ATCC 25922, wild strain, IID-861); cited from earlier work
Procedure: For BLF, a Minimum Inhibitory Concentration (MIC) and Minimum Bactericidal Concentration (MBC) larger than 200 µg/mL against the evaluated strains were found (Table 1), implying that high concentrations of the protein are required to achieve antibacterial activity. […] Furthermore, its purification is a long and expensive process.

[8] = microdilution, Mueller-Hinton broth

B1: BLF: Bovine lactoferrin, 703 amino acids, 80 kDa glycoprotein; obtained from Sigma-Aldrich (protein, UniProt P24627 20-708, looked up)
Lactotransferrin: APRKNVRWCTISQPEWFKCRRWQWRMKKLGAPSITCVRRAFALECIRAIAEKKADAVTLDGGMVFEAGRDPYKLRPVAAEIYGTKESPQTHYYAVAVVKKGSNFQLDQLQGRKSCHTGLGRSAGWIIPMGILRPYLSWTESLEPLQGAVAKFFSASCVPCIDRQAYPNLCQLCKGEGENQCACSSREPYFGYSGAFKCLQDGAGDVAFVKETTVFENLPEKADRDQYELLCLNNSRAPVDAFKECHLAQVPSHAVVARSVDGKEDLIWKLLSKAQEKFGKNKSRSFQLFGSPPGQRDLLFKDSALGFLRIPSKVDSALYLGSRYLTTLKNLRETAEEVKARYTRVVWCAVGPEEQKKCQQWSQQSGQNVTCATASTTDDCIVLVLKGEADALNLDGGYIYTAGKCGLVPVLAENRKSSKHSSLDCVLRPTEGYLAVAVVKKANEGLTWNSLKDKKSCHTAVDRTAGWNIPMGLIVNQTGSCAFDEFFSQSCAPGADPKSRLCALCAGDDQGLDKCVPNSKEKYYGYTGAFRCLAEDVGDVAFVKNDTVWENTNGESTADWAKNLNREDFRLLCLDGTRKPVTEAQSCHLAVAPNHAVVSRSDRAAHVKQVLLHQQALFGKNGKNCPDKFCLFKSETKNLLFNDNTECLAKLGGRPTYEEYLGTEYVTAIANLKKCSTSPLLEACAFLTR
MBC (E. coli ATCC 11775 [1]; aliquot spread on MHA plate): > 2.5 µM | MIC (E. coli ATCC 11775 [1]; [8]): > 2.5 µM | MBC ([2]; aliquot spread on MHA plate): > 2.5 µM | MIC [2, 8]: > 2.5 µM | MBC ([3]; aliquot spread on MHA plate): > 2.5 µM | MIC [3, 8]: > 2.5 µM | inhibition halo (E. coli ATCC 11775 [4]): ~ 9 mm | inhibition halo [5]: ~ 9 mm | inhibition halo [6]: ~ 9 mm | BLF concentration required for exhibiting an antibacterial effect [7]: greater than 200 µg/mL
